Experimental data reported in the RNAGym collection of RNA variant scans (doi:10.1073/pnas.2313332121).

B1: TPR t1 (parent)
chain: GACCAAUCUGCCCUCAGAGCUCGAGAACAUCUUCGGAUGCAGAGGAGGCAGGCUUCGGUGGCGCGAUAGCGCCAACGUCCUCAACCUCCAAUGCAUCCCACCACAUGAUGAUGCCUGAAGAGCCUUGGUUUUUUG

Variants of: B1
Experiment: polymerase ribozyme fitness, log enrichment relative to wild type (log ratio); higher = more active; in vitro selection for triplet polymerase activity
In short: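 One round of in vitro selection, in triplicate, was applied to PCR-built, transcribed mutant libraries of each subunit of a heterodimeric triplet polymerase ribozyme. The steps were annealing with a biotinylated primer, partner subunit and triplets, incubation frozen at −7 °C, gel excision of extended constructs, streptavidin-bead capture and RT-PCR. Fitness is the logarithm, base 2, of genotype enrichment over wild-type enrichment from inverse-variance-weighted replicate averages of Illumina-sequenced inputs and outputs, keeping genotypes with ≥10 input reads and ≥1 read per output.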

Variant | polymerase ribozyme fitness (log ratio)
GACCAAUCUGCACUCAGAGCUCGAGAACAUCUUCGGAUGCAGAGGAGGCAGGCUUCGGUGGCGCGAUACCGCCAACGUCCUCAAACUCCAAUGCAUCCCACCACAUGAUGAUUCCUGAAGAGCCUUAGUCUUUUG | -7.98
GACCAAUCUGCACUCAGAGCUCGAGAACAUCUUCGGAUGCAGAGGAGGCAGGCUUCGGUGGCGCGAUAGCGCCAACUUCCUUAACCUCCAAUGCAUCCCACCACAUGAUGAUGCCUGAAGAGCCUUGGUUUUUUG | -1.87
GACCAAUCUGCACUCAGAGCUCGAGAACAUCUUCGGAUGCAGAGGAGGCAGGCUUCGGUGGCGCGAUAGCGCCAACGUCCUCAACCUCGAAUACAUCCCACCACAUGAUGAUGCCUGAAGAGCCUUGGUUUUUUG | -2.86
GACCAAUCUGCACUCAGAGCUCGAGAACAUCUUCGGAUGCAGAGGAGGCAUGCUUCGGUGGCGCGAUAGCGCCAACAUCCUCAACCUCCAAUGCAUCCCACCACAUGAUGAUGCCUGAAGAGCCUUGGUUUUUUG | -1.98
GACCAAUCUGCACUCAGAGCUCGAGAACAUCUUCGGAUGCAGAGGAGGCAGGCUUCGGUGGCGCGAUAGCGCCAACGUCCUCAACCUCCAAUGUAUCCCACCACAUGAUGAUGCCUGAAGAGCCUUGGUUUUUUG | -0.961
GACCAAUCUGCACUCAGAGCUCGAGAACAUCUUCGGAUGCAGAGGAGGCAAGCUUCGGUGGCGCGAUAGCGCCAACGUCCUCAACCUCCAAUGCAUCCCACCACAUGAUGAUGCCUGAAGAGCCUUGGUUUUUUG | -2.41
GACCAAUCUGCACUCAGAGCUCGAGAACAUCUUCGGAUGCAGAGGAGGCACGCUUCGGUGGCGCGAUAGCGCCAACGUCCUCAACCUCCAAUGCAUCCCACCACAUGAUGAUGCCUGAAGAGCCUUGGUUUUUUG | -4.5
GACCAAUCUGCACUCAGAGCUCGAGAACAUCUUCGGAUGCAGAGGAGGCAGGCUUCGGUAGCGCGAUAGCGCCAACGUCCUCAACCUCCAAUGCAUCCCACCACAUGAUGAUGCCUGAAGAGCCUUGGUUUUUUG | -1.28
GACCAAUCUGCACUCAGAGCUCGAGAACAUCUUCGGAUGCAUAGGAGGCAGGCUUCGGUGGCGCGAUAGCGCCAACGUCCUCAACCUGCAAUGCAUCCCACCACAUGAUGAUGUCUGAAGAGCCUUGGUUUUUUG | -4.43
GACCAAUCUGCACUCAGAGCACGAGAACAUCUUCGGAUGCAGAGGAGGCAGGAUUCGGUGGCGCGAUAGCUCCAACGUCCUCAACCUCCAAUGCAUCUCACCACAUGAUGAUGCCUGAAGAGCCUUGGUUUUUUG | -4.86
GACCAAUCUGCACACAGAGCUCGAGAACAUCUUCGGAUGCAGAGGAGGCAGGCUUCGGUGGCGCGAUAGCGCCAACGUCCUCAACCAUCAAUGCAUCCCACCACAUGAUGAUGCCUGAAGAGCCUUGGUUUUUUG | -4.28
GACCAAUCUGCACUCAUAGCUCGAGAACAUCUUCGGAUGCAGUGGAGGCAGGCUUCGGUGGCGCGAUAGCGCCAACGUCCUCAACCUCCAAUGCAUCCCACCACAUGAUGAUGCCUGAAGAGCCUUGGUUUUUUG | -4.46
GACCAAUCUGCACUCAGAGCUCGAGAACAUCUUCGGAUGCAGAGGAGGCAGACUUCGGUGGCGCGAUAGCGCCAACGUCCUCAACCUCCAGUGCAUCCCACCACAUGAUGAUGCCUGAAGAGCCUUGGUUUUUUG | -1.2
GACCAAUCUGCACUCAGAGCUCGAGAACAUCUUCGGAUGCAGAGGAGGCAGGCUUCGGUGGCGCGAUACCGCCAACGUCCUCAACCUCCUAUGCAUCCCACCACAAGAUGAUGCCUGAAGAGCCUUGGUUUUUUG | -4.63
GACCAAUCUGCACUCAGAGCUCGAGAACAUCCUCGGAUGCAGAGGAGGCAGGCUUCGGUGGCGCGAUAGCGCCAACGUCCUCAACCUCCAAUGCAACCCACCACAUGAUGAUGCCUGAAGACGCUUGGUUAUUUG | -0.725
GACCAAUCUGCACUCAGAGCUCGAGAACAUCUUCGGAUGCAGAGGAGGCAGGCUUCGGUGGCGCGAUAGCGCCAACGUCCUCAACCUCCAAUGCAUCCCACUACAUGAUGAUGCAUGAAGAGCCUUGGUUUUUUG | -4.21
GACCAAUCUGCACUCAGAGCUCGAGAACAUCUACGGAUGCAGAGGAGUCAGGCUUCGGUGGCGCGAUAGCGCCCACGUCCUCAACCUCCAAUGUAUCCCACCACAUGAUGAUGCCUGAAGAGCCUUGGUUUUUUG | -5.8
GACCAAUCUGCACUCAGAGCUCGAGAACAUCUUCGGAUGCAGAGGAGUCAGGCUUCGGUGGCGCGAUAGCGCCAACGUCCUCAACCUCCAAUGCAUCCCACCACAUGAUGAUGCCUGAAGAGCCUUGGUUUUUUG | -2.61
GACCAAUCUGCACUCAGAGCUCGAGAACAUCUUCGGAUGCAGAGGAGGCAGGCUUCGGUGGCGCGAUAGCGCCAACGUCCUCAACCUCCAAUGCAUCCCACCACAUGAUGAUGCCUGAACUGCCUUGGUUUUUUG | 1.87
GACCAAUCUGCACUCAGAGCUCGAGAACAUCUUCGGAUGCAGAGCAGGCAGGCUUCGGUGGCUCGAUAGCGCCAACGUCCUCAACCUCCAAUGCAUCCCACCACAUGAUGAUGCCUGAAGAGCCUUGGUUUUUUG | -2.35
GACCAAUCUGCACUCAGAGCUCGAGAACAUCUCCGGAUGCAGAGGAGGCAGGCUUCGGUGGCGCGAUAGCGCCAACGUCCUCAACCUCCAAUGCAUCCCACCCCAUGAUGAUUGCUGAAGAGCCUUUGUUUUUUG | -6.43
